Paper PMC4552014, “High Affinity Binders to EphA2 Isolated from Abdurin Scaffold Libraries; Characterization, Binding and Tumor Targeting” (PLoS ONE, 2015)

Experiments:
human FcRn (human) = human FcRn (human) (UniProt P55899); test: SPR; Biacore 3000, on hFcRn; who was immobilised and the conditions not given
[1] = target: T1, murine EphA2-Fc fusion protein (mouse, UniProt Q03145 26-538); test: ELISA; end-point titration ELISA in 96-well plates coated with hEphA2-Fc or mEphA2-Fc; purified Abdurins titrated; detected by anti-FLAG M2-HRP; the constant is printed as 'Affinity (M)'; conditions: both partners purified
T1 construct: ephrin receptor tyrosine kinase class A2 (EphA2), mouse, extracellular domain as Fc chimera; Biotinylated in-house (EZ-Link Sulfo-NHS-LC-Biotin) for the CIS display selections and the screening ELISA; also called mEphA2-Fc; mEphA2; source: bought: R&D Systems
T1 sequence (Q03145 26-538): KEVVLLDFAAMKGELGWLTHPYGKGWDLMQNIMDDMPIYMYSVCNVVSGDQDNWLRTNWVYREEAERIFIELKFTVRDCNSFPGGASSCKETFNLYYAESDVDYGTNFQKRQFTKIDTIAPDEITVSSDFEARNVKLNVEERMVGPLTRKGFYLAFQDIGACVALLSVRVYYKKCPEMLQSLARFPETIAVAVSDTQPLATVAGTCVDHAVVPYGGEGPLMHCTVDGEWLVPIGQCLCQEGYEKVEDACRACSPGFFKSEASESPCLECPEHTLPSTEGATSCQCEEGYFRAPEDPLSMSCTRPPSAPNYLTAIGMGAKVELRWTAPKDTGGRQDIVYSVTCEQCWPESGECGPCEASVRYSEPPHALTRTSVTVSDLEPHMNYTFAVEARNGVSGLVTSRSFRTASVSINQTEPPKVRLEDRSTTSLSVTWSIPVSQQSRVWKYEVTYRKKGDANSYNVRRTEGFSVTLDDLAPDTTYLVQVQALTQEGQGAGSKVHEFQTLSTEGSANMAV

hEphA2-Fc = target: T2, hEphA2-Fc (human, UniProt P29317 24-537); test: as above; conditions: both partners purified
T2 construct: EphA2, human, as Fc fusion coated on 96-well plates; Probably the extracellular domain; also called huEphA2
T2 sequence (P29317 24-537): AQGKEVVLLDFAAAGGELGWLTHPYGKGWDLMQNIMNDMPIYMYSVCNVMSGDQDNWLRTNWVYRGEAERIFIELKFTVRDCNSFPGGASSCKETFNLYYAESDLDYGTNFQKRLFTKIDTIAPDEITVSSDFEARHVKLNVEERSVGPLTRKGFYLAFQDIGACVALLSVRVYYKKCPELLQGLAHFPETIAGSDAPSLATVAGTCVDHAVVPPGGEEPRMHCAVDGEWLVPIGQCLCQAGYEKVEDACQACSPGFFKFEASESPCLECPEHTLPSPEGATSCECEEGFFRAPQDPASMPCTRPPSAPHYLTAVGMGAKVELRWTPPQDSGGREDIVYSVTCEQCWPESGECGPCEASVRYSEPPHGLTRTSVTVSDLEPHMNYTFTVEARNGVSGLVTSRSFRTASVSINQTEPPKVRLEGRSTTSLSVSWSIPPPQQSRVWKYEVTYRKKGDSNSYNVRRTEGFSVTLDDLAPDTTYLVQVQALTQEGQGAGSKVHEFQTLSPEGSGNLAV

[2] = target: human EphA2 recombinant protein (human, UniProt P29317 24-976, Construct limits are not given; the soluble recombinant receptor is taken as the mature extracellular domain from the UniProt features. The Fig 3 legend names an Fc fusion (hEphA2-Fc), and the Fc is); test: SPR; Biacore 3000; hEphA2 immobilised on CM5 chip by amine coupling (500 RU); Abdurins as analyte, multi-cycle kinetics in HBS-P (50 mM Hepes pH 7.4, 150 mM NaCl, 0.005% P-20), 40 μl/minute; 1:1 binding model; repeated three times; conditions: both partners purified
Chain of human EphA2 recombinant protein (P29317 24-976): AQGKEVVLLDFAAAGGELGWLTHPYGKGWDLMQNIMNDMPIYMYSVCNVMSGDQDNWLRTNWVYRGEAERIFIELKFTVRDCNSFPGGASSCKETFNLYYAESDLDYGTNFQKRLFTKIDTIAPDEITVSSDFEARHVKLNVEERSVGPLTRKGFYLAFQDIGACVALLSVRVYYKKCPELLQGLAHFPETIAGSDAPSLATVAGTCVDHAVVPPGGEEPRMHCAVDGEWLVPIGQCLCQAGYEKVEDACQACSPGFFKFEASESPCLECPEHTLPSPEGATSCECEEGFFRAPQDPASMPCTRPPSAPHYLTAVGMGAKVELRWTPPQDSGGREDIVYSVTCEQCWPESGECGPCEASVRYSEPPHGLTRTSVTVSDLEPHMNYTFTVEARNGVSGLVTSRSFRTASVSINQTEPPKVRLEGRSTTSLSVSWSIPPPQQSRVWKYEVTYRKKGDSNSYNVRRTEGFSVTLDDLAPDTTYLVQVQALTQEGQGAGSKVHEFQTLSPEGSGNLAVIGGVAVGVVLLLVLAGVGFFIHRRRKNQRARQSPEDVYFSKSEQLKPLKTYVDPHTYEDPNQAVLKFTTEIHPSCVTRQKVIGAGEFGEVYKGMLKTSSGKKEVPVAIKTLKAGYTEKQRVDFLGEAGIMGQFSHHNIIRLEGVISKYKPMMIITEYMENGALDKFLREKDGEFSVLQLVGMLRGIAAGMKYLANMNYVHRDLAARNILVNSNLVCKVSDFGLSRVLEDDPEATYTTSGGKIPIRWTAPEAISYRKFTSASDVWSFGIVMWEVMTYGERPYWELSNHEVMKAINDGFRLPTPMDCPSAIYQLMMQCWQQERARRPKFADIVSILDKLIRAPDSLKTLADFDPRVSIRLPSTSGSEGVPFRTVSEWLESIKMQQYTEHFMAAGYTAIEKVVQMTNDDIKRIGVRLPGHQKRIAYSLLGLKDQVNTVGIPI

[3] = target: T3, hEphA2 on CHOK1-EphA2 cells (human, UniProt P29317 24-976); test: flow cytometry on cells; Abdurins at 1nM to 7μM incubated with CHOK1-EphA2 cells; detected with mouse anti-HisTag-FITC; the constant is printed as 'Affinity (M)'; conditions: one partner purified
T3 construct: EphA2, human, transfection-ready hEphA2 cDNA (OriGene Technologies); also called cell-surface expressed hEphA2; source: CHOK1 cells transfected with hEphA2 cDNA (OriGene Technologies), single cell clone, on cells
T3 sequence (P29317 24-976): as above

[4] = target: T1, murine EphA2-Fc fusion protein; test: SPR; Biacore 3000, on mEphA2; purified Abdurins from E. coli; immobilisation for mEphA2 not described; conditions: both partners purified

| Molecule | Kd (human FcRn (human)) | koff (human FcRn (human)) | kon (human FcRn (human)) | Kd [1] | Kd (hEphA2-Fc) | koff [2] | kon [2] | Kd [3] | Kd [4] | koff [4] | kon [4] |
| --- | --- | --- | --- | --- | --- | --- | --- | --- | --- | --- | --- |
| shWTCH2 (version of the wild-type CH2 domain that has the N-terminal seven amino acids truncated) (domain or fragment) | 25 nM | 0.017 s⁻¹ | 1.5e+06 M⁻¹ s⁻¹ | – | – | – | – | – | – | – | – |
| Abdurin B11, affinity matured EphA2 binder (designed binder, Abdurin scaffold (human IgG1 CH2 domain), stretch before loop BC; loop BC of matured clone B11, in place of Val266-Pro271 (VSHEDP) of the scaffold; Abdurin scaffold (human IgG1 CH2 domain), stretch between loops BC and DE; loop DE from the parental clone E10, in place of Glu293-Thr299 (EEQYNST); Abdurin scaffold (human IgG1 CH2 domain), stretch after loop DE; Not the phage loop DE clone of the …) GPSVFLFPPKPKDTLMISRTPEVTCVVVDYRADYLEVKFNWYVDGVEVHNAKTKPRQYDPLYGYRVVSVLTVLHQDWLNGKEYKCKVSNKALPAPIEKTISKAK | 26 nM | 0.013 s⁻¹ | 1.1e+06 M⁻¹ s⁻¹ | 9.89 nM | 4.43 nM | 0.0158 s⁻¹ | 1.21e+06 M⁻¹ s⁻¹ | 403 nM | – | – | – |
| Abdurin D2, affinity matured EphA2 binder (designed binder, Abdurin scaffold (human IgG1 CH2 domain), stretch before loop BC; loop BC of matured clone D2, in place of Val266-Pro271 (VSHEDP) of the scaffold; Abdurin scaffold (human IgG1 CH2 domain), stretch between loops BC and DE; loop DE from the parental clone E10, in place of Glu293-Thr299 (EEQYNST); Abdurin scaffold (human IgG1 CH2 domain), stretch after loop DE; Not the phage loop DE clone of the …) GPSVFLFPPKPKDTLMISRTPEVTCVVVDYEAAALEVKFNWYVDGVEVHNAKTKPRQYDPLYGYRVVSVLTVLHQDWLNGKEYKCKVSNKALPAPIEKTISKAK | – | – | – | 1.97 nM | 2.55 nM | – | – | 1310 nM | – | – | – |
| Abdurin G7, affinity matured EphA2 binder (designed binder, Abdurin scaffold (human IgG1 CH2 domain), stretch before loop BC; loop BC of matured clone G7, in place of Val266-Pro271 (VSHEDP) of the scaffold; Abdurin scaffold (human IgG1 CH2 domain), stretch between loops BC and DE; loop DE from the parental clone E10, in place of Glu293-Thr299 (EEQYNST); Abdurin scaffold (human IgG1 CH2 domain), stretch after loop DE; source: E. coli Shuffle cells, …) GPSVFLFPPKPKDTLMISRTPEVTCVVVDPHLGVDEVKFNWYVDGVEVHNAKTKPRQYDPLYGYRVVSVLTVLHQDWLNGKEYKCKVSNKALPAPIEKTISKAK | – | – | – | 3.18 nM | 8.06 nM | 0.0375 s⁻¹ | 1.8e+06 M⁻¹ s⁻¹ | 333 nM | – | – | – |
| Abdurin H6, purified loop DE binder (designed binder, Abdurin scaffold (human IgG1 CH2 domain), stretch before loop DE; loop DE of clone H6, in place of Glu293-Thr299 (EEQYNST) of the scaffold; Abdurin scaffold (human IgG1 CH2 domain), stretch after loop DE) GPSVFLFPPKPKDTLMISRTPEVTCVVVDVSHEDPEVKFNWYVDGVEVHNAKTKPRRVDPLGGYRVVSVLTVLHQDWLNGKEYKCKVSNKALPAPIEKTISKAK | – | – | – | – | – | – | – | – | 873 nM | 0.008 s⁻¹ | 9610 M⁻¹ s⁻¹ |
| Abdurin B6, affinity matured EphA2 binder (designed binder, Abdurin scaffold (human IgG1 CH2 domain), stretch before loop BC; loop BC of matured clone B6, in place of Val266-Pro271 (VSHEDP) of the scaffold; Abdurin scaffold (human IgG1 CH2 domain), stretch between loops BC and DE; loop DE from the parental clone E10, in place of Glu293-Thr299 (EEQYNST); Abdurin scaffold (human IgG1 CH2 domain), stretch after loop DE; source: E. coli Shuffle cells, …) GPSVFLFPPKPKDTLMISRTPEVTCVVVDPYLHDDEVKFNWYVDGVEVHNAKTKPRQYDPLYGYRVVSVLTVLHQDWLNGKEYKCKVSNKALPAPIEKTISKAK | 38 nM | 0.011 s⁻¹ | 1.1e+06 M⁻¹ s⁻¹ | 3.5 nM | 6.54 nM | 0.0496 s⁻¹ | 716000 M⁻¹ s⁻¹ | 151 nM | – | – | – |
